Results as given in patent US20210198366A1 (NGM BIOPHARMACEUTICALS, published 2021).
Positions count from the first letter of the chain named. Blank lines part the entries; values can stand above or below the binder they belong to.

Columns and labels:
[1] = biological target: T1, human B7-H7 expressed on the cell surface (human, UniProt Q9UM44 23-414); experiment: cell-based or functional assay
T1 sequence: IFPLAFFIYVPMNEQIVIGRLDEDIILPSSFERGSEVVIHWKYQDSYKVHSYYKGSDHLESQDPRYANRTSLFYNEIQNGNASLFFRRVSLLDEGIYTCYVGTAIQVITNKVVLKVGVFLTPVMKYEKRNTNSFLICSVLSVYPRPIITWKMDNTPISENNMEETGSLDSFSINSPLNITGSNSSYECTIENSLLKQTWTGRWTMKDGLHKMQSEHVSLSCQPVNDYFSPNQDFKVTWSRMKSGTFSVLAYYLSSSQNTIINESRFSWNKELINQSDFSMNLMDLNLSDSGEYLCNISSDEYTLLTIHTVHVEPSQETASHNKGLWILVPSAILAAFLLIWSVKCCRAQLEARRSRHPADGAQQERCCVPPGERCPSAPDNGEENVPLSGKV

[2] = biological target: T2, cynomolgus monkey B7-H7 expressed on HEK-293T cells (cynomolgus monkey); experiment: FACS on HEK-293T cells expressing cyno B7-H7
T2 construct: also called cyno B7-H7; cells expressing cyno B7-H7
T2 chain: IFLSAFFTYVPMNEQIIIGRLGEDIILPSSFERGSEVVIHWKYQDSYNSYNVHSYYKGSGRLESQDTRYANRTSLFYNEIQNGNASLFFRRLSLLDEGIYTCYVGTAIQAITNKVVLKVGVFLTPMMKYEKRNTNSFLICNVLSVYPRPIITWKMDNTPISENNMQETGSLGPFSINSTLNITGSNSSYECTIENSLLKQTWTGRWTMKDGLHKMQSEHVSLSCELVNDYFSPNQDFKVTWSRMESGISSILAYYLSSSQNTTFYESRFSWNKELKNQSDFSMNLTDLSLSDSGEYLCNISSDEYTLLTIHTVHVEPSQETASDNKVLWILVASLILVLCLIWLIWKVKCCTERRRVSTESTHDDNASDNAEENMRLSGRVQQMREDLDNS

[3] = biological target: T1, human B7-H7 expressed on the cell …; experiment: FACS on HEK-293T cells expressing human B7-H7
[4] = biological target: T3, human B7-H7 (soluble analyte in SPR) (human, UniProt Q9UM44 23-344, limits assumed); experiment: SPR (Biacore), antibody captured by anti-Fc on CM5 chip, B7-H7 injected, 37 C
T3 sequence: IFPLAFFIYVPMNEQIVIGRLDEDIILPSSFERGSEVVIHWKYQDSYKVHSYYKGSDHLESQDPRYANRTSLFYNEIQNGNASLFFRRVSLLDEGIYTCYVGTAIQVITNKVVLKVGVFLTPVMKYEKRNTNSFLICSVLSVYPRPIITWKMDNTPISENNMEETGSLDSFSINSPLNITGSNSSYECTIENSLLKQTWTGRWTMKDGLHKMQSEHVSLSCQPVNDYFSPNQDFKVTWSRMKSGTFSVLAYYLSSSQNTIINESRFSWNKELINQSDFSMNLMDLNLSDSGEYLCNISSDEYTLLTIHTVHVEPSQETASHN
Protocol: (§1) The binding affinities of exemplary anti-B7-H7 antibodies to human B7-H7 and cyno B7-H7 were measured using SPR technology (Biacore system, GE Healthcare Life Sciences). Briefly, anti-Fc antibody (Sigma-Aldrich) was immobilized on all four flow cells of a CM5 chip using amine coupling reagents (GE Healthcare LifeSciences). Exemplary antibodies were captured on flow cells 2, 3, and 4 using flow cell 1 as a reference. Human B7-H7 or cyno B7-H7 (samples ranging from 0.62-40 nM) were injected at a flow rate of 50 μL/min at 37° C. Kinetic data were collected over time and fit using the simultaneous global fit equation to yield affinity constants (KD values) for each antibody.

[5] = biological target: T4, soluble human B7-H7-Fc fusion protein (extracellular region of human B7-H7, aa 23-344, and a human Fc … (human, UniProt Q9UM44 23-344)); experiment: FACS competition: antibody titrated against soluble hB7-H7-Fc binding to HEK-293 cells expressing human CD28H
T4 construct: also called hB7-H7-Fc; soluble B7-H7
T4 sequence: T3 sequence
Protocol: (§2) Exemplary anti-B7-H7 antibodies identified by ELISA and FACS were tested for their ability to block binding of soluble B7-H7 to receptors KIR3DL3 or CD28H in a FACS assay. HEK-293 cells were transiently transfected with a construct encoding (i) a membrane-bound KIR3DL3 protein or (ii) a membrane-bound CD28H protein. After 48 hours, transfected cells were suspended in ice cold PBS containing 1% FBS and 0.1% sodium azide and incubated on ice in the presence of […]/ml of soluble human B7-H7-Fc protein and antibodies 2D7, 1D3, 28F3, 16D5, 2F10, 5F7, 5B10, 5C9, or 3H6 (serially diluted from […] to 4.6 ng/ml). A second incubation with an anti-human Fc secondary antibody was performed to detect cells bound by the soluble B7-H7-Fc. The cells were analyzed on a BD FACSCalibur instrument (BD Biosciences) and the data was processed using FlowJo software. Calculated IC50s are shown Table 12.

[6] = biological target: T4, soluble human B7-H7-Fc fusion protein …; experiment: FACS competition: antibody titrated against soluble hB7-H7-Fc binding to HEK-293 cells expressing human KIR3DL3
Protocol: as §2

[7] = biological target: T3, human B7-H7 (soluble analyte in SPR); experiment: SPR (Biacore)
Protocol: as §1
The binding affinity of Hz2D7 to human B7-H7 and cyno B7-H7 was determined using SPR technology (Biacore system) as described herein and compared with the binding affinity of the parental antibody and with a chimeric 2D7 antibody comprising the murine heavy chain and light chain variable regions of 2D7 and a human Fc region.

B2: anti-B7-H7 antibody 1D3 (antibody, V domains shown)
VH: EVQLQQSGPELEKPGASVKISCKASGYSFTGYNMNWVKESNGRSLEWIGNIDPYSGGSTYNQKFKGKATMTVDKSSSTAYMQLKSLTSEDSAVYYCARSVYDAPWLAHWGQGTLVTVSA
VL: DIQMTQSPASLSASVGETVTITCRASENIYIYLAWYQQKQGKSPQLLVYNAKTLAEGVPSRFSGSGSGTQFSLKINRLQPEDFGNYYCQHHYGTPPTFGGGTKLEIK
notes: Mouse hybridoma antibody
Induction of NK-92 cytotoxicity EC50 [1]: 1.2 nM
Induction of NK-92 cytotoxicity Relative efficacy [1]: 136%
MFI [2]: 214 MFI
MFI [3]: 247 MFI
Kd [4]: 0.9 nM
IC50 [5]: 8 nM
IC50 [6]: 5 nM

B3: anti-B7-H7 antibody 16D5 (antibody, V domains shown)
VH: QVQLQQSAAELARPGASVKMSCKASGYTFTTYTMHWVKQRPGQGLEWIGYINPSRGYSDYSQKFQGKSTLTTDKSSNTAYIQLTSLTSEDSAVYFCARGGYDFDYWGQGTTLTVSS
VL: DIVMTQSHKFMSTSVGDRVSITCKASQDVGTAVAWYQQKPGQSPKLLLYWASTRHTGVPDRFTGSGSGTDYTLTISSVQAEDLALYHCQQHFITPYTFGGGTKLEIK
notes: Mouse hybridoma antibody
Induction of NK-92 cytotoxicity EC50 [1]: 0.5 nM
Induction of NK-92 cytotoxicity Relative efficacy [1]: 135%
MFI [2]: 199 MFI
MFI [3]: 165 MFI
Kd [4]: 0.2 nM
IC50 [5]: 2 nM
IC50 [6]: 1.7 nM

B4: anti-B7-H7 antibody 5F7 (antibody, V domains shown)
VH: QEQLQQPGTELVKPGASVKISCKASGYTFSSYSMHWVKLTPGQGLEWMGTIYPGNENTSYNQKFKGKATLTADKSSSTAYMQLSSLTSEDSAVYYCARGGYYFDYWGQGTTLTVSS
VL: B3 VL with M11L, G30S, L48I, P59S, Y71F, H87Y, I93D, T94I, T97W
notes: Mouse hybridoma antibody
Induction of NK-92 cytotoxicity EC50 [1]: 0.6 nM
Induction of NK-92 cytotoxicity Relative efficacy [1]: 151%
MFI [2]: 195 MFI
MFI [3]: 163 MFI
Kd [4]: 0.6 nM
IC50 [5]: 1.8 nM
IC50 [6]: 1.6 nM

B7: anti-B7-H7 antibody 2F10 (antibody, V domains shown)
VH: EIQLQQTGPELVKPGASLRISCKASGYSFTDYIIVWVKQNQGKNLDWIEKINPYYGTTTYNLRFEDKATLTVNKSSTTAYMQLNSLTSEDSAVYYCARWDYVSTLFAMDYWGQGTSITVSS
VL: DIVMTQSHKVMSTSVGDRVSIICKASQDVGTAVAWYQQKPGQSPKLLIYWASTRHTGVPDRFTGSGSGTDFILTITNVQSENLANYFCQQYKRYYTFGGGTKLEIK
notes: Mouse hybridoma antibody
Induction of NK-92 cytotoxicity EC50 [1]: 0.9 nM
Induction of NK-92 cytotoxicity Relative efficacy [1]: 146%
MFI [2]: 134 MFI
MFI [3]: 101 MFI
Kd [4]: 0.3 nM
IC50 [5]: 3 nM
IC50 [6]: 2.5 nM

B8: humanized anti-B7-H7 antibody Hz2D7 (antibody, human IgG1, kappa, V domains shown)
VH: QVQLVQSGAEVKKPGASVKVSCKTSGYTFTEYTMHWVRQAPGQGLEWMGGINPNNYGAPYNQKFKGRVTMTVDTSISTAYMELSRLRSDDTAVYYCASGGYYFDYWGQGTLVTVSS
VL: DIQMTQSPSSLSASVGDRVTITCKASQDVGTAVAWYQQKPGKAPKLLIYWAFTRHTGVPSRFSGSGSGTDYTLTISSLQPEDFATYYCQQHYDTPFTFGQGTKVEIKR
Kd [7]: < 0.1 nM
koff [7]: 1.01e-05 s⁻¹

B9: anti-B7-H7 antibody 28F5 (antibody, V domains shown)
VH: QVQLKESGPGLVAPSQSLSITCTVSGFSLTGYGVNWVRQPPGKGLEWLGVIWGDGSTDYNSVLKSRLSISKDNSKSQVFLKMNSLQTDDTARYYCAREATEYLYWYFDVWGAGTTVTVSS
VL: DIVLTQSPASLAVSLGQRATISCRASESVEYYGSSLMQWYQQKPGQPPKLLIFAASNVESGVPPRFSGSGSGTDFNLNIHPVDEDDIAMYFCQQGRRVPWTFGGGTKLEIK
notes: Mouse hybridoma antibody
Induction of NK-92 cytotoxicity EC50 [1]: 0.5 nM
Induction of NK-92 cytotoxicity Relative efficacy [1]: 150%
MFI [2]: 165 MFI
MFI [3]: 152 MFI
Kd [4]: 0.4 nM
IC50 [5]: 2.7 nM
IC50 [6]: 2.6 nM

B10: chimeric 2D7 antibody comprising the murine heavy chain and light chain variable regions of 2D7 and a human Fc region (antibody, V domains shown)
VH: EVQLQQSGPELVKPGASVKISCKTSGYTFTEYTMHWVKQSHGKSLEWIGGINPNNYGAPYNQKFKGKATLTVDKSSNTAYMELRSLTSEDSAIYYCASGGYYFDYWGQGTTLTVSS
VL: DIVMTQSHKFMSTSFGDRVSITCKASQDVGTAVAWYQQKLGQSPKLLISWAFTRHTGVPDRFTGSGSGTDYTLTISSLQAEDLALYYCQQHYDTPFTFGSGTKLEIK
Kd [7]: < 0.1 nM
koff [7]: 5.61e-06 s⁻¹

More lines, in order of falling Kd [4], values ahead:

MFI [2]: 93 MFI
MFI [3]: 82 MFI
Kd [4]: 4 nM
IC50 [5]: 3.4 nM
IC50 [6]: 2.4 nM
B1: anti-B7-H7 antibody 5B10 (antibody, V domains shown)
VH: B2 VH with E39Q, R43K, M70L, Y80S, M81L, A92S, V100F, W105Y, A107T, H108Y
VL: DIQMTQSPTSLSASVGETVTITCRASENIFIYLAWYQQKQGKSPQLLVFNAKTLAEGVPSRFSGSGSGTQFSLKINSLRPEDFGTYYCQHHYGTPPTFGGGTKLEV
notes: Mouse hybridoma antibody
Induction of NK-92 cytotoxicity EC50 [1]: 1.6 nM
Induction of NK-92 cytotoxicity Relative efficacy [1]: 148%

MFI [2]: 568 MFI
MFI [3]: 41 MFI
Kd [4]: 0.8 nM
IC50 [5]: 2.5 nM
IC50 [6]: 2.7 nM
B5: anti-B7-H7 antibody 3H6 (antibody, V domains shown)
VH: B10 VH with Y56G, N77S, I93V, S98R
VL: B10 VL with F15V, G30S, L40S, S49Y, F52S, L78V, S100G
notes: Mouse hybridoma antibody
Induction of NK-92 cytotoxicity EC50 [1]: 0.8 nM
Induction of NK-92 cytotoxicity Relative efficacy [1]: 105%

MFI [2]: 176 MFI
MFI [3]: 185 MFI
Kd [4]: 0.8 nM
IC50 [5]: 3.4 nM
IC50 [6]: 3 nM
B6: anti-B7-H7 antibody 5C9 (antibody, V domains shown)
VH: QVQLQQSGAELAKPGASVKMSCKASGYTFTSFWIHWIKQRPGQGLEWIGYIIPNTDYTEYNQKFKDKATFTADKSSSTAYMQLSSLTSEDSAVFYCARGLRGAYYFDYWGQGTTLTVSS
VL: DIVLTQSPASLAVSLGLRATISCRSSQSVSTSTNGYMHWYQQKPGQPPKLLIMYASNLESGVPARFSGSGSGTDFTLNIHPVDEEDTATYYCQHSWVLPYTFGGGTKLEIK
notes: Mouse hybridoma antibody
Induction of NK-92 cytotoxicity EC50 [1]: 1.6 nM
Induction of NK-92 cytotoxicity Relative efficacy [1]: 155%
